Source: PMC4506582, “Plasmodium falciparum coronin organizes arrays of parallel actin filaments potentially guiding directional motility in invasive malaria parasites” (Malaria Journal, 2015)

Key:
[1] = target: the molecule itself; experiment: SEC; Superdex 200 10/300, 50 mM MES pH 7.0, 100 mM NaCl, 2 mM DTT, 1 mM EDTA; single peak at ~13 mL, ~160 kDa
[2] = target: rabbit skeletal muscle actin (filamentous, Mg-ATP-actin polymerised) (rabbit, UniProt P68135 1-377); experiment: co-sedimentation; settings: both partners purified

B1: His-PfAldolase (Plasmodium falciparum fructose 1,6 bisphosphate aldolase) (enzyme, UniProt Q7KQL9 1-369, looked up)
chain: MAHCTEYMNAPKKLPADVAEELATTAQKLVQAGKGILAADESTQTIKKRFDNIKLENTIENRASYRDLLFGTKGLGKFISGAILFEETLFQKNEAGVPMVNLLHNENIIPGIKVDKGLVNIPCTDEEKSTQGLDGLAERCKEYYKAGARFAKWRTVLVIDTAKGKPTDLSIHETAWGLARYASICQQNRLVPIVEPEILADGPHSIEVCAVVTQKVLSCVFKALQENGVLLEGALLKPNMVTAGYECTAKTTTQDVGFLTVRTLRRTVPPALPGVVFLSGGQSEEEASVNLNSINALGPHPWALTFSYGRALQASVLNTWQGKKENVAKAREVLLQRAEANSLATYGKYKGGAGGENAGASLYEKKYVY
notes: Detected by anti-His Western blot in the sedimentation assay; source: E. coli BL21 (DE3), purified (IMAC, cation exchange, SEC); not shown: His6, N-terminal, kept
How did the “stoichiometry N” value [1] turn out when B1 was run?
The value was ~4.

B2: PfCoronin 1-388 (N-terminal beta-propeller domain of Plasmodium falciparum coronin) (domain or fragment)
chain: MYNVPLIKNLYPDPSNNLYGDLRICSRATETCGIACSAGYIAVPWQVEGGGMIGVIRLENQVRNPPVIKLKSHTSPILDLSFNPCYSEILASCSEDMSIRIWEIRHEDENVNEVKDPLCILNGHKKKVNILSWNPMNYFILSSTSFDSSVNIWDIENEKKAFEINMPKKLSSLQWDIGGNLLSGTCQNKQIHIIDPRKQEICNSFLIHDGGKSTKCIWIDGFGGEDKCILTTGFSKNNMRELKLWSLKNTTSPLTTITLDNAASPLLPHYDESVGMIYLIGKGDGNCRYYQYSQGSIRKVDEYKSCLPFRSFGFLPKRMCDVYKCEIGRVYKNENNTDIRPISFYVPRKNSSIFQEDLYPPIIMRDPERSTNKWIDGINLDIKRVSIK
B2 was tested. Which Kd [2] did it give?
Its Kd is 956 nM.
